test system: c-Src; experiment: phosphorylation enrichment, bacterial display (enrichment ratio); higher = better substrate or ligand; peptides without Tyr show the background
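Note: 11-residue human phosphosite peptides and single-mutation variants displayed on the E. coli surface, counted by deep sequencing, each peptide's frequency after selection divided by its frequency in the unselected input library; frequency after pTyr selection over input frequency; kinase dosed for 20-30% of maximal phosphorylation in three min.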

Compared with EFQKKYSDADI [CKAP5_Y1860_K1857Q_YF], MKGDYYCYLAE [YWHAG_Y131_R132C] is higher in phosphorylation enrichment: 0.35 for the first, 2.49 for the second.

First: PESCLYKESWL [IQGAP2_Y630]
Second: KFLENYLNRLL [PLD2_Y169_YF]
The phosphorylation enrichment of the first is higher: 0.775 for the first, 0.481 for the second.

First: IGEGTYGQVFK [CDK13_Y716_YF]
Second: KRELRYMHSRV [ABCD1_Y281_G277R]
The phosphorylation enrichment of the first is higher: 7.69 for the first, 0.313 for the second.

First: KELSSYKHLTL [SLIT2_Y776_N775S]
Second: QMVGMYASSYM [AVPR2_Y124]
The phosphorylation enrichment of the first is lower: 0.451 for the first, 1.45 for the second.

First: GGFSRYDEGSG [RECQL5_Y484_D480G]
Second: AVLSLYASGST [ACTG2_Y144_R148S]
The phosphorylation enrichment of the first is lower: 0.416 for the first, 0.541 for the second.

Going from QAPPIYLDVLG [NTRK1_Y791_V790I] to FQASFYRRGDR [LTK_Y677_R673Q_YF], the phosphorylation enrichment falls from 1.71 to 0.525.

Going from QDLRLYRPHLA [BTK_Y617_G613D] to VDSNPYSRLMA [UBA5_Y53], the phosphorylation enrichment rises from 0.474 to 1.16.

Going from KTGNIYRTEYG [MRPL3_Y265_M261T] to SLIDMYSEVLA [OPA1_Y268_D273A], the phosphorylation enrichment rises from 0.424 to 1.61.

Going from EDASEYFENYI [PARP4_Y214] to DKGTLYIVEQI [PLBD1_Y375], the phosphorylation enrichment falls from 0.539 to 0.383.

Going from KDAGDYKYKAK [LRIT3_Y326_C328Y] to TSSAVYMNLAS [GATAD2B_Y317_I316V], the phosphorylation enrichment rises from 0.319 to 3.04.

First: NIRKKYFRAIL [CHD7_Y1217_Q1214R_YF]
Second: RGKEPYTKKAL [TTC21B_Y160]
The phosphorylation enrichment of the first is lower: 0.504 for the first, 0.829 for the second.

Compared with SHSMRYFDTAV [HLA-C_Y31], AGGTRYRYVSQ [UCN3_Y95_R91G] is higher in phosphorylation enrichment: 0.367 for the first, 0.507 for the second.

Compared with AEMTGYVMTRW [MAPK13_Y182_V184M], VATRWYRSPEL [CDKL5_Y177] is higher in phosphorylation enrichment: 0.397 for the first, 0.448 for the second.

Going from TSKLSYLDPRI [TOP1_Y723_N722S] to GDFFRSLAEVA [YWHAG_Y133_Y133S_YF], the phosphorylation enrichment falls from 0.479 to 0.425.

In the case of DSMQSYDLDFP [UNC13B_Y243_YF], the phosphorylation enrichment is reported as 0.569.

molecular target: FGFR3 (UniProt P22607); experiment: as above
Sequence (P22607 whole entry, looked up): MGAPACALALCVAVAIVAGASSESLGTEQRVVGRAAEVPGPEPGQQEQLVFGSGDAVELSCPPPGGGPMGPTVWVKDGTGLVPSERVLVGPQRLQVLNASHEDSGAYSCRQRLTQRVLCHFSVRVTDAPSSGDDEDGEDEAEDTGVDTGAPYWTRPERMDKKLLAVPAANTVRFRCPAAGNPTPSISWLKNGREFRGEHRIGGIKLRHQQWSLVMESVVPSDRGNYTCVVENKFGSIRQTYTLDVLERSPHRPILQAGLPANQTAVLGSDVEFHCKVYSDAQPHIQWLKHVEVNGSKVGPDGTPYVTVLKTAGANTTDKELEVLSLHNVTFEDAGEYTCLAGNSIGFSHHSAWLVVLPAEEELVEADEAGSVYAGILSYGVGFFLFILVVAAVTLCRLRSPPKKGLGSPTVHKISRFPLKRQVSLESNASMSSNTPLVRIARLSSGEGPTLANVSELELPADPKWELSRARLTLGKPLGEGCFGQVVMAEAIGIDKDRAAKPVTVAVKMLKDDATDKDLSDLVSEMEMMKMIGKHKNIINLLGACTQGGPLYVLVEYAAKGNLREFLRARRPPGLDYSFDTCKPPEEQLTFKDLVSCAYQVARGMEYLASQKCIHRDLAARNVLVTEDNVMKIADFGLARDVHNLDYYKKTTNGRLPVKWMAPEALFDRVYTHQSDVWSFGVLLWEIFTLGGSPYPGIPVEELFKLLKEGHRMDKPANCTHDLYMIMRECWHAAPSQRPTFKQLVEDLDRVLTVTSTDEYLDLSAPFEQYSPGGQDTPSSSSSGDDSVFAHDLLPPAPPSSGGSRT

Compared with EFQKKYSDADI [CKAP5_Y1860_K1857Q_YF], MKGDYYCYLAE [YWHAG_Y131_R132C] is higher in phosphorylation enrichment: 0.544 for the first, 9.01 for the second.

First: PESCLYKESWL [IQGAP2_Y630]
Second: KFLENYLNRLL [PLD2_Y169_YF]
The phosphorylation enrichment of the first is higher: 2.14 for the first, 0.562 for the second.

First: IGEGTYGQVFK [CDK13_Y716_YF]
Second: KRELRYMHSRV [ABCD1_Y281_G277R]
The phosphorylation enrichment of the first is lower: 0.402 for the first, 0.447 for the second.

Compared with KELSSYKHLTL [SLIT2_Y776_N775S], QMVGMYASSYM [AVPR2_Y124] is higher in phosphorylation enrichment: 0.406 for the first, 0.783 for the second.

Going from GGFSRYDEGSG [RECQL5_Y484_D480G] to AVLSLYASGST [ACTG2_Y144_R148S], the phosphorylation enrichment rises from 0.659 to 0.723.

Going from QAPPIYLDVLG [NTRK1_Y791_V790I] to FQASFYRRGDR [LTK_Y677_R673Q_YF], the phosphorylation enrichment falls from 2.38 to 0.523.

Compared with QDLRLYRPHLA [BTK_Y617_G613D], VDSNPYSRLMA [UBA5_Y53] is higher in phosphorylation enrichment: 0.488 for the first, 0.533 for the second.

Compared with KTGNIYRTEYG [MRPL3_Y265_M261T], SLIDMYSEVLA [OPA1_Y268_D273A] is higher in phosphorylation enrichment: 0.592 for the first, 0.832 for the second.

Compared with EDASEYFENYI [PARP4_Y214], DKGTLYIVEQI [PLBD1_Y375] is lower in phosphorylation enrichment: 0.83 for the first, 0.703 for the second.

Compared with KDAGDYKYKAK [LRIT3_Y326_C328Y], TSSAVYMNLAS [GATAD2B_Y317_I316V] is higher in phosphorylation enrichment: 0.387 for the first, 1.09 for the second.

Going from NIRKKYFRAIL [CHD7_Y1217_Q1214R_YF] to RGKEPYTKKAL [TTC21B_Y160], the phosphorylation enrichment falls from 0.546 to 0.522.

First: SHSMRYFDTAV [HLA-C_Y31]
Second: AGGTRYRYVSQ [UCN3_Y95_R91G]
The phosphorylation enrichment of the first is higher: 0.521 for the first, 0.381 for the second.

Going from AEMTGYVMTRW [MAPK13_Y182_V184M] to VATRWYRSPEL [CDKL5_Y177], the phosphorylation enrichment falls from 0.885 to 0.518.

Going from TSKLSYLDPRI [TOP1_Y723_N722S] to GDFFRSLAEVA [YWHAG_Y133_Y133S_YF], the phosphorylation enrichment rises from 0.592 to 0.595.

Sequence DSMQSYDLDFP [UNC13B_Y243_YF] has a phosphorylation enrichment of 0.646.

molecular target: Fyn (UniProt P06241); experiment: as above
Sequence (P06241 whole entry, looked up): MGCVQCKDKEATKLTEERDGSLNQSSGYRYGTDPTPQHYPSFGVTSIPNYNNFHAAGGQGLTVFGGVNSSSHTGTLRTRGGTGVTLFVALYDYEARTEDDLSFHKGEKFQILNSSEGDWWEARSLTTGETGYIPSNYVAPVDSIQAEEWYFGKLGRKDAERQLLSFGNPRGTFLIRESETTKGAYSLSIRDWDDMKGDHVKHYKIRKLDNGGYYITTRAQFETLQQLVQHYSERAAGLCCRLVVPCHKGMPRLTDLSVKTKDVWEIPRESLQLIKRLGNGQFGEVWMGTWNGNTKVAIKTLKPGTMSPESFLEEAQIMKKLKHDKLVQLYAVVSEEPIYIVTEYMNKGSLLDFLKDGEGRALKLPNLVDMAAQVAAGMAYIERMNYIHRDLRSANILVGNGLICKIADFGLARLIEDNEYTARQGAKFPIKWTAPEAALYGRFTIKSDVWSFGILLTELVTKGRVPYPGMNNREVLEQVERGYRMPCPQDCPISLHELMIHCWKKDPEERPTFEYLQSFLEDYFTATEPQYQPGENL

Going from EFQKKYSDADI [CKAP5_Y1860_K1857Q_YF] to MKGDYYCYLAE [YWHAG_Y131_R132C], the phosphorylation enrichment rises from 0.422 to 2.16.

First: PESCLYKESWL [IQGAP2_Y630]
Second: KFLENYLNRLL [PLD2_Y169_YF]
The phosphorylation enrichment of the first is higher: 1.21 for the first, 0.37 for the second.

Compared with IGEGTYGQVFK [CDK13_Y716_YF], KRELRYMHSRV [ABCD1_Y281_G277R] is lower in phosphorylation enrichment: 10.8 for the first, 0.312 for the second.

Going from KELSSYKHLTL [SLIT2_Y776_N775S] to QMVGMYASSYM [AVPR2_Y124], the phosphorylation enrichment rises from 0.427 to 1.11.

Going from GGFSRYDEGSG [RECQL5_Y484_D480G] to AVLSLYASGST [ACTG2_Y144_R148S], the phosphorylation enrichment rises from 0.432 to 0.476.

Going from QAPPIYLDVLG [NTRK1_Y791_V790I] to FQASFYRRGDR [LTK_Y677_R673Q_YF], the phosphorylation enrichment falls from 1.46 to 0.55.

First: QDLRLYRPHLA [BTK_Y617_G613D]
Second: VDSNPYSRLMA [UBA5_Y53]
The phosphorylation enrichment of the first is lower: 0.505 for the first, 0.756 for the second.

Going from KTGNIYRTEYG [MRPL3_Y265_M261T] to SLIDMYSEVLA [OPA1_Y268_D273A], the phosphorylation enrichment rises from 0.488 to 0.959.

Compared with EDASEYFENYI [PARP4_Y214], DKGTLYIVEQI [PLBD1_Y375] is lower in phosphorylation enrichment: 0.613 for the first, 0.492 for the second.

Going from KDAGDYKYKAK [LRIT3_Y326_C328Y] to TSSAVYMNLAS [GATAD2B_Y317_I316V], the phosphorylation enrichment rises from 0.308 to 3.21.

Going from NIRKKYFRAIL [CHD7_Y1217_Q1214R_YF] to RGKEPYTKKAL [TTC21B_Y160], the phosphorylation enrichment falls from 0.45 to 0.438.

Going from SHSMRYFDTAV [HLA-C_Y31] to AGGTRYRYVSQ [UCN3_Y95_R91G], the phosphorylation enrichment rises from 0.416 to 0.491.

First: AEMTGYVMTRW [MAPK13_Y182_V184M]
Second: VATRWYRSPEL [CDKL5_Y177]
The phosphorylation enrichment of the first is higher: 0.493 for the first, 0.385 for the second.

First: TSKLSYLDPRI [TOP1_Y723_N722S]
Second: GDFFRSLAEVA [YWHAG_Y133_Y133S_YF]
The phosphorylation enrichment of the first is lower: 0.435 for the first, 0.464 for the second.

Work on DSMQSYDLDFP [UNC13B_Y243_YF] yielded a phosphorylation enrichment of 0.48.

molecular target: FGFR1 (UniProt P11362); experiment: as above
Sequence (P11362 whole entry, looked up): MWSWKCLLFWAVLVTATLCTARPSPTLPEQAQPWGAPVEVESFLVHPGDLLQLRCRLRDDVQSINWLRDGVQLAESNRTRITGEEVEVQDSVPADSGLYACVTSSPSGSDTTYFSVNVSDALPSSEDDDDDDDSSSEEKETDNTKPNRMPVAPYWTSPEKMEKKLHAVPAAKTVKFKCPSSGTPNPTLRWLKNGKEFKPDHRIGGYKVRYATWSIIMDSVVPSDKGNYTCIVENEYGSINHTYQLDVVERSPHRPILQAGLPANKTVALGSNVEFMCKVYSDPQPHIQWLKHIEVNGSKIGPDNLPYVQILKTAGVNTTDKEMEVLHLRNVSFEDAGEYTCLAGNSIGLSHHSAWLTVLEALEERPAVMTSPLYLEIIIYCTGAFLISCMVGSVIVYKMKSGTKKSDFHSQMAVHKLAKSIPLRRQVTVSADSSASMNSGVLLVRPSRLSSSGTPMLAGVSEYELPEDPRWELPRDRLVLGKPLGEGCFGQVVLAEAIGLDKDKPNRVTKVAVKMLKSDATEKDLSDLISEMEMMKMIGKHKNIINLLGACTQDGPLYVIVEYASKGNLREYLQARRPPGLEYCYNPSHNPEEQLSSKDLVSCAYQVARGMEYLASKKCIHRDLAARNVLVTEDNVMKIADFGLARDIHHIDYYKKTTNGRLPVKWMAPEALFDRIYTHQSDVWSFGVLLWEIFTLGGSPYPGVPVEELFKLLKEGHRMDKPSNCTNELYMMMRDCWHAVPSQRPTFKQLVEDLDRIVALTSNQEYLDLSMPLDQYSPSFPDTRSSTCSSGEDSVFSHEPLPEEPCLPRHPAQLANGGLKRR

Going from EFQKKYSDADI [CKAP5_Y1860_K1857Q_YF] to MKGDYYCYLAE [YWHAG_Y131_R132C], the phosphorylation enrichment rises from 0.442 to 11.4.

Going from PESCLYKESWL [IQGAP2_Y630] to KFLENYLNRLL [PLD2_Y169_YF], the phosphorylation enrichment falls from 1.55 to 0.499.

First: IGEGTYGQVFK [CDK13_Y716_YF]
Second: KRELRYMHSRV [ABCD1_Y281_G277R]
The phosphorylation enrichment of the first is higher: 0.324 for the first, 0.295 for the second.

Compared with KELSSYKHLTL [SLIT2_Y776_N775S], QMVGMYASSYM [AVPR2_Y124] is higher in phosphorylation enrichment: 0.393 for the first, 0.611 for the second.

First: GGFSRYDEGSG [RECQL5_Y484_D480G]
Second: AVLSLYASGST [ACTG2_Y144_R148S]
The phosphorylation enrichment of the first is lower: 0.473 for the first, 0.572 for the second.

Going from QAPPIYLDVLG [NTRK1_Y791_V790I] to FQASFYRRGDR [LTK_Y677_R673Q_YF], the phosphorylation enrichment falls from 3.35 to 0.532.

Compared with QDLRLYRPHLA [BTK_Y617_G613D], VDSNPYSRLMA [UBA5_Y53] is higher in phosphorylation enrichment: 0.358 for the first, 0.468 for the second.

First: KTGNIYRTEYG [MRPL3_Y265_M261T]
Second: SLIDMYSEVLA [OPA1_Y268_D273A]
The phosphorylation enrichment of the first is lower: 0.464 for the first, 1.12 for the second.

Going from EDASEYFENYI [PARP4_Y214] to DKGTLYIVEQI [PLBD1_Y375], the phosphorylation enrichment falls from 0.84 to 0.423.

First: KDAGDYKYKAK [LRIT3_Y326_C328Y]
Second: TSSAVYMNLAS [GATAD2B_Y317_I316V]
The phosphorylation enrichment of the first is lower: 0.337 for the first, 1.31 for the second.

Going from NIRKKYFRAIL [CHD7_Y1217_Q1214R_YF] to RGKEPYTKKAL [TTC21B_Y160], the phosphorylation enrichment rises from 0.48 to 0.568.

Going from SHSMRYFDTAV [HLA-C_Y31] to AGGTRYRYVSQ [UCN3_Y95_R91G], the phosphorylation enrichment falls from 0.471 to 0.397.

Compared with AEMTGYVMTRW [MAPK13_Y182_V184M], VATRWYRSPEL [CDKL5_Y177] is lower in phosphorylation enrichment: 0.653 for the first, 0.372 for the second.

Going from TSKLSYLDPRI [TOP1_Y723_N722S] to GDFFRSLAEVA [YWHAG_Y133_Y133S_YF], the phosphorylation enrichment falls from 0.611 to 0.486.

For DSMQSYDLDFP [UNC13B_Y243_YF], the phosphorylation enrichment was 0.537.

From the supplement of paper PMC10065799, “High-throughput profiling of sequence recognition by tyrosine kinases and SH2 domains using bacterial peptide display” (eLife, 2023)
